Here are results for one substance from paper PMC8428401.

For this assay, the target named is AAVhum.8 capsid (adeno-associated virus 8 (nonhuman primate isolate)) (UniProt Q8JQF8). As to the kind of experiment: cryo-EM structure; purified AAVhum.8 vectors vitrified on Quantifoil grids; Titan Krios 300 kV; capsid reconstructed in cisTEM; 60-mer VP3 model refined against the map.

Regarding “AAVhum.8 capsid (from UniProt Q8JQF8 218-738) (complex)”, the stoichiometry N (usually a count of units in the complex or per binding partner) was determined as 60.
